In the RNAGym collection of RNA variant scans (doi:10.1073/pnas.2313332121):

B1: TPR t1 (parent)
chain: GACCAAUCUGCCCUCAGAGCUCGAGAACAUCUUCGGAUGCAGAGGAGGCAGGCUUCGGUGGCGCGAUAGCGCCAACGUCCUCAACCUCCAAUGCAUCCCACCACAUGAUGAUGCCUGAAGAGCCUUGGUUUUUUG

Variants of: B1
Assay: polymerase ribozyme fitness, log enrichment relative to wild type (log ratio); higher = more active; in vitro selection for triplet polymerase activity
Method in brief: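 Fitness is a logarithmic measure of how a genotype enriched relative to the wild type, with replicate averages weighted by inverse variance. The logarithm uses base 2, and enrichment came from Illumina sequencing of input and output libraries. Those libraries were PCR-built, transcribed mutants of each subunit of a heterodimeric triplet polymerase ribozyme, passed through one triplicate in vitro selection round that included frozen incubation at −7 °C, gel excision of extended constructs and streptavidin-bead capture. Genotypes were kept only if they had ≥10 input reads and ≥1 read per output.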

In order of rising “polymerase ribozyme fitness (log ratio)” value:
1. C64U C101A G110C  -7.07
2. C64G U81G C101A G113A  -6.96
3. C64G U78C  -6.9
4. G65A G120C U129A U132C  -6.78
5. C64A A66C C104A  -6.61
6. C64A C86A U112G  -6.59
7. A68G C80A  -6.54
8. G63U C86G A90U C104A G110U  -6.48
9. G63A C72G C104G G120A G122U  -6.38
10. C64U C104G U109A  -6.28
11. G65C C114G  -6.28
12. G69A G93A G113C  -6.22
13. U67A C70G C89G C123G  -6.22
14. C64A C88G G110U  -6.03
15. G69A G110C  -6.02
16. C64G U112G G120A  -5.95
17. G65A U87G  -5.9
18. C62U C98G G117C G128A U133C  -5.87
19. A68G G71A C101U  -5.85
20. A68U U112A  -5.84
21. G63A C115U A119C  -5.84
22. C62G C115U G122U  -5.8
23. A66U G69U C88G C99A A119G  -5.79
24. G65U G120U  -5.78
25. C62G U92A  -5.63
26. C64U U87A U109C  -5.61
27. C64A C70G A95U G110C C114U  -5.6
28. C62U C98A  -5.51
29. G69A C85A U106A U125A  -5.49
30. C62G U106A A108G C115A C123A  -5.43
31. C64G A111G  -5.39
32. G63A C64U  -5.38
33. A68U G120C  -5.33
34. G63C C86A U96G C102A  -5.23
35. C64U C82G C89A U109A  -5.15
36. C64U C79U C85A A105G  -5.05
37. G69A A91C  -5.04
38. A68G U81A C99U A111U C124U  -5.02
39. G63A G113U G127C  -4.93
40. G63A C89A C115G  -4.92
41. G69A C70U C124A  -4.91
42. G63A C85A C115U  -4.85
43. C64U C89U G117C  -4.79
44. G69A C102U  -4.72
45. G65C C101U  -4.71
46. G63U A90C C101A  -4.63
47. A68G G113U  -4.53
48. C62U C86U A100U G110A U129G  -4.42
49. C62G C114U  -4.41
50. G63U C85A G128A  -4.29
51. G63C U81G  -4.28
52. G63A G113C U133A  -4.26
53. G63A C79A G93U  -4.19
54. G63U G120C G128C  -4.02
55. A68U G120A  -3.93
56. G63U C97U C98U G113A A118G U134G  -3.87
57. G69A C73A C82A G120A G128A  -3.86
58. G69A G110A  -3.77
59. A68G C115U  -3.75
60. C62U G65U  -3.73
61. C62U C70A C94G  -3.73
62. G63A A74U  -3.72
63. G69A C85U  -3.69
64. G63C C114U A118C  -3.66
65. G69A A95C G113A  -3.61
66. G63U G77U  -3.54
67. G63A C102A  -3.54
68. G63A C79A  -3.48
69. C62G A100C  -3.47
70. G63A A90U  -3.43
71. C62G C115G U125A  -3.31
72. G69A G135A  -3.3
73. C62U C72G C94A  -3.29
74. G63A C104A U132A G135U  -3.28
75. A68G A100U U133A  -3.27
76. G63C A111U  -3.26
77. G63C U81G G120A  -3.19
78. G63C G77C U129C  -3.13
79. A68G U132A  -3.13
80. G69A C70U  -3.12
81. A68G U78C  -3.07
82. C62A U87A A100C C115A  -2.71
83. G63U C85G G113A  -2.68
84. C62A G128A  -2.62
85. G63A U78G  -2.6
86. C62A U78G  -2.46
87. C62U C97G A121U  -2.46
88. C62A U126G  -2.4
89. G63U G135U  -2.37
90. A68G U112G  -2.31
91. C62G A75C A118U C123A G135U  -2.3
92. C62A U129A  -2.21
93. G63C C98U  -2.15
94. G63C U78G C98U  -2.14
95. G63U U133G  -1.94
96. G63A C123U G128C  -1.87
97. A66U C73G  -1.75
98. G63C A84G  -1.73
99. G63A A119U G135U  -1.7
100. C64U G77A G93C C98U G120A C124G  -1.69
101. G63U C97U  -1.62
102. G63A U112A G122C  -1.55
103. C62U A95G U96C  -1.53
104. G63C U87A U130C G135U  -1.49
105. G69A G120A  -1.48
106. C62A U130G  -1.46
107. G63A C88U  -1.46
108. G63U U87A  -1.45
109. G63C G117A  -1.45
110. C62U A91C  -1.43
111. C64U C85U  -1.42
112. C64U G113A  -1.32
113. C64U C104A  -1.31
114. C62U C104A  -1.29
115. G63A A119U  -1.29
116. G69A C124U  -1.25
117. C62U C85U C123A  -1.23
118. C62G U133A  -1.22
119. C62U C115U  -1.22
120. G63A U125A  -1.21
121. C62A U130G U133A  -1.17
122. G63A U112A U125A  -1.17
123. C62G U106A  -1.16
124. C62U U106G A121U G122U  -1.15
125. G63U U129C  -1.11
126. C62U C85A U106G C123G  -1.11
127. A66G U96C A118U  -1.1
128. C64U A118G U129G  -1.07
129. C62U U116C  -1.06
130. A66U C115A  -1.05
131. C62U A84G C101A C123U  -1.03
132. C62G C123A  -1.01
133. G63U A119U  -0.897
134. G63C U132A  -0.875
135. G63U U87G  -0.803
136. C64U C82G C88U U131G  -0.778
137. G63C A75U U87A  -0.774
138. C64U C88U C97U  -0.745
139. G63A U78C  -0.735
140. G63A U78C A95G  -0.717
141. G63A G120U  -0.702
142. G63U U78A  -0.683
143. A66C U87G A118U U132A  -0.678
144. G69A G120C  -0.596
145. C62U C88G  -0.561
146. G63U A119G  -0.465
147. G63A C97U C115A  -0.416
148. C64U U96C U132A  -0.407
149. G63U C123U  -0.374
150. C62U U81C C101U  -0.199
151. C64U A66U  -0.148
152. C62U U106C  -0.141
153. C64U C80U  0.0248
154. C62U A83C C88U G120A  0.0358
155. G63U G120C  0.0622
156. G63C C86U U112A  0.23
157. G63C C124A  0.234
158. G63A U78C A91G A121G  0.408
159. G63A C124A  0.45
160. G63A A119G G127U  0.478
161. C62A U78C A121C  0.55
162. G63U C89U A90G U112A C123G  0.558
163. C64U C73U  0.562
164. G63A C124G  0.684
165. G63A A121C  0.832
166. A66G C123G U133A  1.16
167. C62U U106A G120U C124G  1.54
